According to US20210079089A1 (SURROZEN OPERATING, published 2021):

T1: LRP6E3E4_O75581_631-1246 (Homo sapiens (Human), UniProt O75581 631-1246, biotinylated in the BLI/SPR assays (C-terminal biotin acceptor peptide))
T1 construct: The entry holds residues 631-1246 of UniProt O75581 followed by a biotin acceptor peptide and eight His; For crystals the complex was treated with carboxypeptidase A and B
T1 sequence: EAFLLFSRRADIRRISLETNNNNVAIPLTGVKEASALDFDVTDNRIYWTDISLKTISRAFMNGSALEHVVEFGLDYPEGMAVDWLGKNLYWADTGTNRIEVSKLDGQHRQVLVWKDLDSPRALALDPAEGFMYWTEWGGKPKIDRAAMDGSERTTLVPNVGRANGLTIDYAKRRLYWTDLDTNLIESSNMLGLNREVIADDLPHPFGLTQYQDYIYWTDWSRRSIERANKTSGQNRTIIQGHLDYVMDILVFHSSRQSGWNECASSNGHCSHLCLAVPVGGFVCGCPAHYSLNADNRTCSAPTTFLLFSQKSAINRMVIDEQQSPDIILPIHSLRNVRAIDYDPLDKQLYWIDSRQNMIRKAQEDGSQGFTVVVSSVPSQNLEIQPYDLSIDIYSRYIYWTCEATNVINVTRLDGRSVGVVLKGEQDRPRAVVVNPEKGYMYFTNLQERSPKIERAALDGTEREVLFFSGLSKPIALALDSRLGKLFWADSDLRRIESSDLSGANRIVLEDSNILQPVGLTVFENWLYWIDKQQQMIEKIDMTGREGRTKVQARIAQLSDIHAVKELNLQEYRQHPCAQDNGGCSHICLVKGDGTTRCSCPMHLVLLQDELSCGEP

T2: LRP6e1e2 (UniProt O75581 20-630, limits assumed, C-terminally biotinylated)
T2 construct: domain: E1E2; also called LRP6 E1E2 domains
T2 sequence (looked up): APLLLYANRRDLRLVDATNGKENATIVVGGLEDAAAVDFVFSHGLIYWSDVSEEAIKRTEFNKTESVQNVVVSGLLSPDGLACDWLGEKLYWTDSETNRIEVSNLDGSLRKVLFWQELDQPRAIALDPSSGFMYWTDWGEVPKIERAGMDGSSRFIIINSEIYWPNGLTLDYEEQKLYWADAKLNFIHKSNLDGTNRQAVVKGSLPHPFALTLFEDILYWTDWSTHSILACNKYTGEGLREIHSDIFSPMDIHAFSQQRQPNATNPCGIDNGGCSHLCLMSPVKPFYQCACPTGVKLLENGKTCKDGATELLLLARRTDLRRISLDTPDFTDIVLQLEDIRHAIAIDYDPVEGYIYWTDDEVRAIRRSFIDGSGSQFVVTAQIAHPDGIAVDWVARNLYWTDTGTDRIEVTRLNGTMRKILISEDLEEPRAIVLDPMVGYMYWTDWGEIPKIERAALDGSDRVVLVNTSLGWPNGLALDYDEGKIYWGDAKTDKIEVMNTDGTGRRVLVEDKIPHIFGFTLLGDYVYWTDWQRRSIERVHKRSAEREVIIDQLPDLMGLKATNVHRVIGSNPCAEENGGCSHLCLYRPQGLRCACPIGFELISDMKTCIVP

B1: 009S-H04 (VHH)
VHH: EVQLVESGGGLVQAGGSLRLACAGSGRIFAIYDMAWYRQAPGNQRELVATIRPVVSETTYADAVKGRFTISRSNAMKTVYLQMNSLKSEDTAIYYCNAKRPWGTRDEYWGQGTLVTVSS
B2: 009S-G04 (VHH)
VHH: EVQLVESGGGLVQAGGSLRVSCAASGGTFSRYHMGWFRQAPGKEREFVSAITWSGGRTYYADFVKGRFTISRDDARNTVYLQMSSLKPEDTAVYYCALTWAPTPTNRRSDYAYWGQGTQVTVSS
B3: 009S-B04 (VHH)
VHH: DVQLVESGGGLVQPGGSLRLSCAASGSIFMINTMAWYRQAPGNQRELVATIRPVVSETTYADAVKGRFTISRDNAKNTVYLQMNSLKSEDTAIYYCNAKRPWGTRDEYWGQGTLVTVSS
B4: 013S-H04 (HC SEQ ID NO 16) (VHH)
VHH: AVQLVDSGGGLVQAGGSLRLSCAVSGRTFSMYDMGWFRQAPGKEREFVASIRWSSGNTWYADSMKGRFTISRDNAKNTVYLQMNSLKPEDTAVYYCYANIYYTRRAPEEYWGQGTLVTVSS
B5: 013S-C05 (HC SEQ ID NO 17) (VHH)
VHH: EVQLVESGGGLVQPGGSLRLSCAVSRNIFPIDDMSWYRQAPGKQRELVATVTSGGRINYADSVKGRFTISRDGARRTIDLQMNNLKPEDTAVYYCNVDRTLYGKYKEYWGQGTLVTVSS
B6: 013S-D05 (HC SEQ ID NO 18) (VHH)
VHH: QVKLEESGGGLVQAGGSLRLSCAASGRIFSIYDMGWFRQAPGKEREFVSGIRWSGGTSYADSVKGRFTISKDNAKNTIYLQMNNLKAEDTAVYYCGSRGYWGQGTLVTVSS
B7: 009S-D03 (VHH)
VHH: DVQLVESGGGLVQPGGSLRLSCAAPGSIFSDGAMGWYRQAPGKQRELVAVISGGRTGYADFVKGRFTISRDNGKNTVNLQMNRLEPEDTAVYFCNTYPFPIYKKGYPFWGQGTQVTVSS
B8: 009S-A04 (VHH)
VHH: AVQLVESGGGLVQAGGSLRLSCAASGRTLSAYDMGWFRQAPGKERELVGGIRWSGGTTLYPDSVKGRFTISRDNAKNTVYLQMNSLKPEDSAVYYCYARTVIGGFGAFRAHWGQGTQVTVSS
B9: 009S-F03 (VHH)
VHH: DVQLVESGGGLVQAGGSLRLSCAASGRTFSSYAMSWFRQAPGKEREFVAVIGRSGGIKYYADSVKGRFTISRDNTINTVYLQMNNLTPEDTAIYYCATRRPFNSYNTEQSYDSWGRGTLVTVSS
B10: 009S-G02 (VHH)
VHH: AVQLVESGGGLVQAGGSLRLSCGVSGSIFSIYAMGWYRQAPGKERELVAVITSGGKTVYADSVKGRFTITEDAAKNTVYLQMNSLKAEDTAVYYCYADSRSSWYDEYLEHWGRGTLVTVSS

target: T1, LRP6E3E4_O75581_631-1246; test: Octet BLI or BIAcore SPR

Binder	Kd
B1	< 500 nM
B2	< 500 nM
B3	< 500 nM
B4	< 500 nM
B5	< 500 nM
B6	< 500 nM

target: T2, LRP6e1e2; test: Octet BLI or BIAcore SPR

Binder	Kd
B7	< 500 nM
B8	< 500 nM
B9	< 500 nM
B10	< 500 nM

target: T1, LRP6E3E4_O75581_631-1246; test: Octet BLI
Method: (§1) Binding kinetics of antibody fragments to LRP5 extracellular domain (LRP5 ECD) and/or LRP6 extracellular domain (LRP6 ECD) protein targets was determined by bio-layer interferometry (BLI) using Octet Red 96 (PALL ForteBio, Fremont, Calif.) instruments at 30° C., 1000 rpm with streptavidin (SA) biosensors. C-terminal biotinylated LRP ECD recombinant protein was diluted to 20 nM in the running buffer (PBS, 0.05% Tween-20, 0.5% BSA, pH 7.2) and captured to the SA biosensor until coupling length reached 0.2 nm. Following capture of the LRP5 or LRP6, the SA biosensor with captured biotinylated-LRP5 or biotinylated LRP6 was dipped into wells containing the relevant antibody fragment at […] (0, 1.37, 4.12, 12.4, 37, 111.1, 333.3, 1000 nM) in running buffer, plus a well with only running buffer as a reference channel. KD was determined by global fitting, 1:1 binding model according to manufacturer recommended settings.

Binder	binding result
B7	no binding
B8	no binding
B9	no binding
B10	no binding

target: T2, LRP6e1e2; test: Octet BLI
Method: as §1

Binder	binding result
B1	no binding
B2	no binding
B3	no binding
B4	no binding
B5	no binding
B6	no binding

target: T1, LRP6E3E4_O75581_631-1246; test: Octet BLI, affinity class
Method: as §1

Binder	Kd
B1	< 500 nM
B2	< 500 nM
B3	< 500 nM
B4	< 500 nM
B5	< 500 nM
B6	< 500 nM

target: T2, LRP6e1e2; test: Octet BLI, affinity class
Method: as §1

Binder	Kd
B7	< 500 nM
B8	< 500 nM
B9	< 500 nM
B10	< 500 nM
